Assays:
Assay in all cases: cell-based or functional assay
[1] = molecular target: SARS-CoV-2 spike protein with N439K (SARS-CoV-2) (UniProt P0DTC2)
[2] = molecular target: SARS-CoV-2 spike protein with K444N (SARS-CoV-2) (UniProt P0DTC2)
[3] = molecular target: SARS-CoV-2 spike protein with K444T (SARS-CoV-2) (UniProt P0DTC2)
[4] = molecular target: SARS-CoV-2 spike protein with K444Q (SARS-CoV-2) (UniProt P0DTC2)
[5] = molecular target: SARS-CoV-2 spike protein with V445A (SARS-CoV-2) (UniProt P0DTC2)

Work on mAb10987 (antibody) yielded a reduced susceptibility (fold; neutralization assays using pseudotyped VSV) [1] of 463 fold, a reduced susceptibility (fold; neutralization) [2] of over 755 fold and a reduced susceptibility (fold; neutralization) [3] of over 1030 fold. For the same substance, the reduced susceptibility (fold; neutralization) [4] was over 548 fold and the reduced susceptibility (fold; neutralization) [5] was 548 fold.
